# Measured values: patent publication US7220569
# Tests used:
# [1] = system: recombinant Factor X (rFX) from highly expressing CHO-rFX clones
# [2] = system: Factor X analogue with the FXIa cleavage site Asp-Phe-Thr-Arg/Val (rFX^DFTR/V)
# [3] = system: rFactor X from furin deficient CHO-FD11 cells (CHO-FD11-rFX)
# rFactor X from furin deficient CHO-FD11 cells (CHO-FD11-rFX), sequence (chain, as listed by the source): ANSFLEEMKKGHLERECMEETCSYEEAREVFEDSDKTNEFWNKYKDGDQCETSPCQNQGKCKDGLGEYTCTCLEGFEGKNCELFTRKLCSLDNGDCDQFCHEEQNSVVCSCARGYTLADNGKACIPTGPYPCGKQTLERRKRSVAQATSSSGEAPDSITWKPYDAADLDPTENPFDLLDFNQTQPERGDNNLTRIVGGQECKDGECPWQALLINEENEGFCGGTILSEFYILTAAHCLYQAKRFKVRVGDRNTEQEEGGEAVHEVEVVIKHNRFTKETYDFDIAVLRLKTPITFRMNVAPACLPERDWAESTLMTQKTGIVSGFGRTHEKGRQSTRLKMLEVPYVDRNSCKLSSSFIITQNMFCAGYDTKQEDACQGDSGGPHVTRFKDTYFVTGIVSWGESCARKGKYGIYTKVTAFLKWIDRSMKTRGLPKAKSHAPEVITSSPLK
# recombinant Factor X (rFX) from highly expressing CHO-rFX clones, sequence (chain, as listed by the source): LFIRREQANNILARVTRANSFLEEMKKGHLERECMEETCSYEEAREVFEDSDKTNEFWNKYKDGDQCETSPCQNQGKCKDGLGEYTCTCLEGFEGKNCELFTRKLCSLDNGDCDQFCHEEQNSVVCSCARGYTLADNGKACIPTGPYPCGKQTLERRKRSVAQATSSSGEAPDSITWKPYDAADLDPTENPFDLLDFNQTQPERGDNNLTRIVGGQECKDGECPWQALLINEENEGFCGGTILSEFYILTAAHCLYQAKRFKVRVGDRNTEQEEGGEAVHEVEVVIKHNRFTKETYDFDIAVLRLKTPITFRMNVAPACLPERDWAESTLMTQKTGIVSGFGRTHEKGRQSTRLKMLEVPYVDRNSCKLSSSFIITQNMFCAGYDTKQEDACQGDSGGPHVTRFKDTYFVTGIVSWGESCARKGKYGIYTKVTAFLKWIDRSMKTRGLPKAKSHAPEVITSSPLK
# Factor X analogue with the FXIa cleavage site Asp-Phe-Thr-Arg/Val (rFX^DFTR/V), sequence (chain, as listed by the source, chain 1 of 2): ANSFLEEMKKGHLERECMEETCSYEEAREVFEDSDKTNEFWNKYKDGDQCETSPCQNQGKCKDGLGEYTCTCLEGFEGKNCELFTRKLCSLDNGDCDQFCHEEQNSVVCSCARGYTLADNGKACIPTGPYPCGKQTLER
# Factor X analogue with the FXIa cleavage site Asp-Phe-Thr-Arg/Val (rFX^DFTR/V), sequence (chain, as listed by the source, chain 2 of 2): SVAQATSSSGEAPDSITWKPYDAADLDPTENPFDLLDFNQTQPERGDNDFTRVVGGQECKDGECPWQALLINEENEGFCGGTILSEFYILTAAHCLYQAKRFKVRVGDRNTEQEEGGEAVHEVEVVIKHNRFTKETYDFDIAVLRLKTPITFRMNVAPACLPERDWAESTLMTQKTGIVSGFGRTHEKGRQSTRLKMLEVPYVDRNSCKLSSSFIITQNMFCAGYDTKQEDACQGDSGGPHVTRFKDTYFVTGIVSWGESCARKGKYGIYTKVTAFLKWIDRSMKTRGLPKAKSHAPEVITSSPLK
substance,measurement,setting,value
endogenous furin of CHO cells,processing of rFactor X precursor in furin containing versus furin deficient CHO clones (Western blot),[1],"rFactor X precursor is not processed in the furin deficient cells and only single chain Factor X precursor is present (FIG. 6); in contrast, rFactor X is completely processed by ""normal"" cells at modest expression"
purified plasma FXIa,activation of rFX^DFTR/V to the 35 kD and 31 kD forms (Western blot),[2],"protein bands of 35 kD and 31 kD rapidly appear after the addition of purified FXIa, but prior to the actual incubation of the cell sulture supernatant (FIG. 11, lane 3)"
rfurin deltaTM6xHis (CHO-rfurin cell culture supernatant),N-termini of processing products after 12 hours at 37 C with CHO-rfurin supernatant (Edman analysis),[1],"After incubation of rFX from CHO cells (c) and CHO-FD11 cells (e) in the presence of furin, only light and heavy chains having correct N-termini are found"
same,"activity (mU), FX Coatest after RVV activation, incubation 0 days",[1],853 mU
same,"activity (mU), FX Coatest after RVV activation, incubation 1 day",[1],1020 mU
same,"activity (mU), FX Coatest after RVV activation, incubation 2 days",[1],1100 mU
same,"activity (mU), FX Coatest after RVV activation, incubation 3 days",[1],1140 mU
same,"activity (mU), FX Coatest after RVV activation, incubation 4 days",[1],1200 mU
same,"functional portion of rFX (%), incubation 0 days",[1],61%
same,"functional portion of rFX (%), incubation 1 day",[1],73%
same,"functional portion of rFX (%), incubation 2 days",[1],79%
same,"functional portion of rFX (%), incubation 3 days",[1],81%
same,"functional portion of rFX (%), incubation 4 days",[1],86%
same,processing of pro-Factor X on tentacle gel immobilized rfurin derivative (Western blot of the effluent),[1],Processing of pro-Factor X to double chain Factor X was detected in the effluent of the column
same,processing of single chain and propeptide containing rFX (Western blot),[1],almost complete processing already after 2 hours of incubation at 37 °C
same,N-termini of processing products after 12 hours at 37 C with CHO-rfurin supernatant (Edman analysis),[3],"After incubation of rFX from CHO cells (c) and CHO-FD11 cells (e) in the presence of furin, only light and heavy chains having correct N-termini are found"
